± gives the uncertainty stated by the source.
assay: abundance fitness (aPCA) (normalised: wild type 0, dead -1); higher = more abundant; growth selection in yeast, the domain comes from the species named; details: Homo sapiens

Row | Substance | abundance fitness
1 | SAFB-like transcription modulator G61S, Q9NWH9 | -0.23 ± 0.049
2 | SAFB-like transcription modulator G61T, Q9NWH9 | -0.296 ± 0.046
3 | SAFB-like transcription modulator G61V, Q9NWH9 | -0.39 ± 0.046
4 | SAFB-like transcription modulator G61W, Q9NWH9 | -0.537 ± 0.059
5 | SAFB-like transcription modulator G61Y, Q9NWH9 | -0.259 ± 0.082
6 | SAFB-like transcription modulator I22A, Q9NWH9 | -0.65 ± 0.078
7 | SAFB-like transcription modulator I22C, Q9NWH9 | -0.347 ± 0.05
8 | SAFB-like transcription modulator I22D, Q9NWH9 | -0.464 ± 0.087
9 | SAFB-like transcription modulator I22E, Q9NWH9 | -0.57 ± 0.11
10 | SAFB-like transcription modulator I22F, Q9NWH9 | -0.372 ± 0.087
11 | SAFB-like transcription modulator I22G, Q9NWH9 | -0.562 ± 0.044
12 | SAFB-like transcription modulator I22H, Q9NWH9 | -0.471 ± 0.12
13 | SAFB-like transcription modulator I22K, Q9NWH9 | -0.576 ± 0.072
14 | SAFB-like transcription modulator I22L, Q9NWH9 | -0.115 ± 0.061
15 | SAFB-like transcription modulator I22N, Q9NWH9 | -0.659 ± 0.11
16 | SAFB-like transcription modulator I22P, Q9NWH9 | -0.736 ± 0.089
17 | SAFB-like transcription modulator I22Q, Q9NWH9 | -0.606 ± 0.093
18 | SAFB-like transcription modulator I22R, Q9NWH9 | -0.743 ± 0.048
19 | SAFB-like transcription modulator I22S, Q9NWH9 | -0.521 ± 0.065
20 | SAFB-like transcription modulator I22T, Q9NWH9 | -0.542 ± 0.1
21 | SAFB-like transcription modulator I22V, Q9NWH9 | -0.132 ± 0.037
22 | SAFB-like transcription modulator I22W, Q9NWH9 | -0.94 ± 0.085
23 | SAFB-like transcription modulator I22Y, Q9NWH9 | -0.531 ± 0.085
24 | SAFB-like transcription modulator I28A, Q9NWH9 | 0.055 ± 0.1
25 | SAFB-like transcription modulator I28E, Q9NWH9 | -0.1 ± 0.11
26 | SAFB-like transcription modulator I28F, Q9NWH9 | -0.417 ± 0.17

Row | Substance | abundance fitness
27 | SAFB-like transcription modulator I28G, Q9NWH9 | -0.106 ± 0.064
28 | SAFB-like transcription modulator I28K, Q9NWH9 | -0.22 ± 0.22
29 | SAFB-like transcription modulator I28N, Q9NWH9 | -0.59 ± 0.23
30 | SAFB-like transcription modulator I28P, Q9NWH9 | 0.193 ± 0.13
31 | SAFB-like transcription modulator I28Q, Q9NWH9 | -0.36 ± 0.13
32 | SAFB-like transcription modulator I28R, Q9NWH9 | -0.018 ± 0.057
33 | SAFB-like transcription modulator I28S, Q9NWH9 | -0.411 ± 0.12
34 | SAFB-like transcription modulator I28T, Q9NWH9 | -0.129 ± 0.12
35 | SAFB-like transcription modulator I28V, Q9NWH9 | 0.01 ± 0.069
36 | SAFB-like transcription modulator I28W, Q9NWH9 | -0.365 ± 0.11
37 | SAFB-like transcription modulator I28Y, Q9NWH9 | -0.306 ± 0.15
38 | SAFB-like transcription modulator I41A, Q9NWH9 | 0.075 ± 0.075
39 | SAFB-like transcription modulator I41C, Q9NWH9 | -0.08 ± 0.15
40 | SAFB-like transcription modulator I41D, Q9NWH9 | -0.457 ± 0.11
41 | SAFB-like transcription modulator I41E, Q9NWH9 | -0.139 ± 0.083
42 | SAFB-like transcription modulator I41F, Q9NWH9 | 0.197 ± 0.079
43 | SAFB-like transcription modulator I41G, Q9NWH9 | -0.158 ± 0.064
44 | SAFB-like transcription modulator I41H, Q9NWH9 | 0.157 ± 0.093
45 | SAFB-like transcription modulator I41K, Q9NWH9 | -0.336 ± 0.11
46 | SAFB-like transcription modulator I41L, Q9NWH9 | -0.087 ± 0.065
47 | SAFB-like transcription modulator I41M, Q9NWH9 | 0.08 ± 0.075
48 | SAFB-like transcription modulator I41N, Q9NWH9 | -0.68 ± 0.2
49 | SAFB-like transcription modulator I41Q, Q9NWH9 | -0.022 ± 0.082
50 | SAFB-like transcription modulator I41R, Q9NWH9 | -0.202 ± 0.066
51 | SAFB-like transcription modulator I41S, Q9NWH9 | -0.01 ± 0.042
52 | SAFB-like transcription modulator I41T, Q9NWH9 | -0.337 ± 0.079

Row | Substance | abundance fitness
53 | SAFB-like transcription modulator I41V, Q9NWH9 | -0.067 ± 0.063
54 | SAFB-like transcription modulator I41W, Q9NWH9 | -0.195 ± 0.092
55 | SAFB-like transcription modulator I41Y, Q9NWH9 | -0.172 ± 0.11
56 | SAFB-like transcription modulator I49A, Q9NWH9 | 0 ± 0.063
57 | SAFB-like transcription modulator I49C, Q9NWH9 | -0.138 ± 0.056
58 | SAFB-like transcription modulator I49D, Q9NWH9 | -0.154 ± 0.11
59 | SAFB-like transcription modulator I49E, Q9NWH9 | -0.056 ± 0.071
60 | SAFB-like transcription modulator I49G, Q9NWH9 | -0.406 ± 0.049
61 | SAFB-like transcription modulator I49H, Q9NWH9 | -0.29 ± 0.1
62 | SAFB-like transcription modulator I49K, Q9NWH9 | -0.401 ± 0.078
63 | SAFB-like transcription modulator I49L, Q9NWH9 | -0.075 ± 0.045
64 | SAFB-like transcription modulator I49M, Q9NWH9 | 0.03 ± 0.057
65 | SAFB-like transcription modulator I49N, Q9NWH9 | -0.518 ± 0.073
66 | SAFB-like transcription modulator I49P, Q9NWH9 | -0.739 ± 0.067
67 | SAFB-like transcription modulator I49Q, Q9NWH9 | -0.068 ± 0.05
68 | SAFB-like transcription modulator I49R, Q9NWH9 | -0.148 ± 0.054
69 | SAFB-like transcription modulator I49S, Q9NWH9 | -0.168 ± 0.05
70 | SAFB-like transcription modulator I49T, Q9NWH9 | -0.223 ± 0.072
71 | SAFB-like transcription modulator I49V, Q9NWH9 | -0.079 ± 0.048
72 | SAFB-like transcription modulator I49W, Q9NWH9 | -0.449 ± 0.041
73 | SAFB-like transcription modulator I49Y, Q9NWH9 | -0.076 ± 0.089
74 | SAFB-like transcription modulator I56A, Q9NWH9 | -0.829 ± 0.1
75 | SAFB-like transcription modulator I56C, Q9NWH9 | -0.18 ± 0.083
76 | SAFB-like transcription modulator I56D, Q9NWH9 | -0.286 ± 0.3
77 | SAFB-like transcription modulator I56E, Q9NWH9 | -0.597 ± 0.089
78 | SAFB-like transcription modulator I56F, Q9NWH9 | -0.898 ± 0.21

Row | Substance | abundance fitness
79 | SAFB-like transcription modulator I56G, Q9NWH9 | -0.916 ± 0.072
80 | SAFB-like transcription modulator I56H, Q9NWH9 | -0.797 ± 0.19
81 | SAFB-like transcription modulator I56L, Q9NWH9 | 0.002 ± 0.068
82 | SAFB-like transcription modulator I56M, Q9NWH9 | -0.217 ± 0.05
83 | SAFB-like transcription modulator I56N, Q9NWH9 | -0.951 ± 0.25
84 | SAFB-like transcription modulator I56P, Q9NWH9 | -0.457 ± 0.05
85 | SAFB-like transcription modulator I56R, Q9NWH9 | -0.485 ± 0.07
86 | SAFB-like transcription modulator I56S, Q9NWH9 | -0.678 ± 0.082
87 | SAFB-like transcription modulator I56W, Q9NWH9 | -0.561 ± 0.069
88 | SAFB-like transcription modulator I56Y, Q9NWH9 | -0.419 ± 0.16
89 | SAFB-like transcription modulator I66A, Q9NWH9 | -0.552 ± 0.15
90 | SAFB-like transcription modulator I66C, Q9NWH9 | 0.196 ± 0.11
91 | SAFB-like transcription modulator I66E, Q9NWH9 | -0.272 ± 0.061
92 | SAFB-like transcription modulator I66F, Q9NWH9 | -0.396 ± 0.15
93 | SAFB-like transcription modulator I66G, Q9NWH9 | -0.517 ± 0.085
94 | SAFB-like transcription modulator I66H, Q9NWH9 | -0.226 ± 0.12
95 | SAFB-like transcription modulator I66L, Q9NWH9 | -0.268 ± 0.094
96 | SAFB-like transcription modulator I66M, Q9NWH9 | -0.316 ± 0.14
97 | SAFB-like transcription modulator I66N, Q9NWH9 | -0.432 ± 0.18
98 | SAFB-like transcription modulator I66P, Q9NWH9 | -0.274 ± 0.1
99 | SAFB-like transcription modulator I66Q, Q9NWH9 | -0.004 ± 0.11
100 | SAFB-like transcription modulator I66R, Q9NWH9 | -0.443 ± 0.061
101 | SAFB-like transcription modulator I66S, Q9NWH9 | -0.259 ± 0.083
102 | SAFB-like transcription modulator I66T, Q9NWH9 | -0.063 ± 0.12
103 | SAFB-like transcription modulator I66V, Q9NWH9 | -0.036 ± 0.084
